# Variants at the floor of the assay were thinned out.
# B1: TPR 5TU (parent)
# chain: GGAUCUUCUCGAUCUAACAAAAAAGACAAAUCUGCCACAAAGCUUGAGAGCAUCUUCGGAUGCAGAGGCGGCAGCCUUCGGUGGCGCGAUAGCGCCAACGUUCUCAACUAUGACACGCAAAACGCGUGCUCCGUUGAAUGGAGUUUAUCAUG
# Variants of: B1
# Assay: polymerase ribozyme fitness, log enrichment relative to wild type (log ratio); higher = more active; in vitro selection for triplet polymerase activity
# How it was run: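 Mutant libraries of each subunit of a heterodimeric triplet polymerase ribozyme were built by PCR and transcribed. Each library went through one round of in vitro selection in triplicate: annealing with biotinylated primer, partner subunit and triplets, frozen incubation at −7 °C, gel excision of extended constructs, streptavidin-bead capture and RT-PCR. Input and output libraries were Illumina-sequenced; only genotypes with ≥10 input reads and ≥1 read per output were kept. Fitness is log2(genotype enrichment/wild-type enrichment), using inverse-variance-weighted replicate averages.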
row,Variant,polymerase ribozyme fitness (log ratio)
1,A22U C38U C57U G94C G126U,-0.0445
2,A24C A29C U55G G94C,≤ -4.2
3,A24C G46A G94U C95A A115C,≤ -4.2
4,A23U G50C U139G,≤ -4.2
5,A23U A26U A41U G50A G65C A91C C103G G128U,≤ -4.2
6,A22U U55A C96U,-0.172
7,A22U C87U G141U,1.15
8,A23C C27G U61A U77A A91U G136C,≤ -4.2
9,A23U A24U,-4.12
10,A24C C27G U33G C38U A47U U82A G128U,≤ -4.2
11,A23U U31C C87G U104G,≤ -4.2
12,A22U C35U A47U G59U G67A C132A G136U,≤ -4.2
13,A23G A91U G140C,≤ -4.2
14,A23U C43U G59C A60G G94C,≤ -4.2
15,A23C G59A G92U U104C A113C C123U G124A,≤ -4.2
16,A24C C51U C105G,≤ -4.2
17,A23C C43A A52U A119C U135G U139A G140A A142G,≤ -4.2
18,A23U A30G U45A A97G G100U,-4.19
19,A22U C69G C75U C93U U101C U127A,≤ -4.2
20,A22U G94C C95G C96A A122U,≤ -4.2
21,A23U U55A G128U,≤ -4.2
22,A22U G86C,-3.34
23,A23G A39U A47C U53G G86C A106G,≤ -4.2
24,A22U C69A A91U,≤ -4.2

row,Variant,polymerase ribozyme fitness (log ratio)
1,A23G G46C G50A G92A C118U A142U,≤ -4.2
2,A23G A30G A52U C116U C132U,≤ -4.2
3,A23G C79G,≤ -4.2
4,A23C C114G,≤ -4.2
5,A24C A28U A41C U78G A122G U127A,≤ -4.2
6,A24C A73C G86U C96A,≤ -4.2
7,A24C A64C,≤ -4.2
8,A24C A28U A37U U134C,≤ -4.2
9,A23G G92U,-3.31
10,A22U U55A A115C C123U U130G,-2.84
11,A22U C36A G83A U145A,≤ -4.2
12,A22U U55A A66C U77A C87A,≤ -4.2
13,A22U G25A A41C A91G G94C,≤ -4.2
14,A23G G25C G50C C57A G58U C85U U144C,≤ -4.2
15,A22U C149U,0.0648
16,A22U G92A C95A C105U,-3.63
17,A22U C57G G58A C114G,-2.5
18,A22U C87A,-4.14
19,A22U C87U,0.455
20,A23C U44C A64C G92C A97U,≤ -4.2
21,A22U C93A,-2.34
22,A24C C85U A120C U146A,≤ -4.2
23,A22U G126A,1.07
24,A23C A29U C38U C54A G84A A98U A106G A137U,≤ -4.2

row,Variant,polymerase ribozyme fitness (log ratio)
1,A23U A29C A119U,≤ -4.2
2,A22U U31C C32U,-3
3,A23C C93A,-3.87
4,A23C U31C C99U C123U U134C,≤ -4.2
5,A23U A30G A41C A47G U53G U56A C75A C93U C108G G133C G136A,≤ -4.2
6,A22U G86A C93G C99A A138C,≤ -4.2
7,A24C C32G C43G C87G U104G A115C,≤ -4.2
8,A24C G34A C87A G126U,-4.18
9,A22U G46A A115G,-1.54
10,A22U C35G C76G G92A C105U,≤ -4.2
11,A23U G25C A52C U55A A122C,≤ -4.2
12,A23G U33G G100C U148C,≤ -4.2
13,A23U C93A,≤ -4.2
14,A23G A52C A98U,-3.98
15,A23U C85G G141A,≤ -4.2
16,A22U C103G A110C,≤ -4.2
17,A23C G25A U55A U61G G68A G92U A97U G124A G128C,≤ -4.2
18,A22U G88U C116A A119U,-4.1
19,A22U U144A,0.777
20,A22U C32A C36A C57U C96G C116U U139G,≤ -4.2
21,A23G U130C A138U,-4.2
22,A23C C36U A60C G86A A121U,≤ -4.2
23,A23U C36U C85A C96G A97U,≤ -4.2
24,A22U G46C C114U,-3.67

row,Variant,polymerase ribozyme fitness (log ratio)
1,A23C U55A C87G C114G G133U G136U,≤ -4.2
2,A23G A40U A66C U109G U111G C149U,≤ -4.2
3,A23U G50C A122C G141C,≤ -4.2
4,A23U,-3.23
5,A23C,-3.48
6,A23G,-1.78
7,A23C A39C C76A A97G G143C,-3.82
8,A24C G50C C96G A110U,≤ -4.2
9,A23G C54A U55G G58A G59C,-4.08
10,A23U A64C G67A G81C,≤ -4.2
11,A23G G48U G65C C72U G81C G83U,≤ -4.2
12,A23U C35G A73U G81A U109G,≤ -4.2
13,A23G C93U U101A G140U,-3.86
14,A22U C99U,-0.0944
15,A22U C99A,0.261
16,A24C C93U C114U A119G,≤ -4.2
17,A22U G141A,2.05
18,A23C A49G C93U U148C,≤ -4.2
19,A23U A40G C87A G141U,≤ -4.2
20,A23U C54U G74U U78G,≤ -4.2
21,A23U C96U,-4.1
22,A23G A29U U61G C99U,≤ -4.2
23,A22U G86U A120U,-1.56
24,A24C C118U C125U,≤ -4.2

row,Variant,polymerase ribozyme fitness (log ratio)
1,A24C A49C A52C A64U C69A U82G C108U U130A U139G,≤ -4.2
2,A23G U55A C87U,-2.98
3,A24C G42C G92U C125G,≤ -4.2
4,A23G G62A A73U C76G G88A C105U A106G,≤ -4.2
5,A23C C27U A30G C93G U101A U104G A107U,≤ -4.2
6,A23C A29U G68C U82G G133U U134A A138U,≤ -4.2
7,A24C G46C A73G C93A A110U A147U,≤ -4.2
8,A22U G34A G74U G94A A119C G143A,≤ -4.2
9,A24C A98U,≤ -4.2
10,A23C C87U,-3.89
11,A23C C87G,≤ -4.2
12,A23U A37U A97U U111C,≤ -4.2
13,A23C A29C C38U C57G A64C G84U,≤ -4.2
14,A23G G59U C95U A110G,-3.86
15,A23C A29C U31G U33C C95U C96U A107U U127C A138C,≤ -4.2
16,A23G G58U C108G U135G,≤ -4.2
17,A23U U45C A66G C85U,≤ -4.2
18,A23U G84A,-3.32
19,A22U C54G C95U,-2.06
20,A22U G88C A147C,-4.19
21,A22U U127A,-3.54
22,A23G C36A C105A A107G U145A,≤ -4.2
23,A23U C38A U45G G50C U56A C93G G117A,≤ -4.2
24,A23C C87U G112U,-3.99

row,Variant,polymerase ribozyme fitness (log ratio)
1,A23U G58C G88U G136A,≤ -4.2
2,A22U G46C A73U,-3.61
3,A23G C85U C95U G133U,-4
4,A23C C32U A64G G81A C87G C95U C96A A97G A138C G141U,≤ -4.2
5,A22U U56A G84A G136C,-3.75
6,A22U G34A G62C G68C C96A,≤ -4.2
7,A23G U44A U61A G70U C76G C93G G143C,≤ -4.2
8,A22U C76U U102G,-3.01
9,A22U G133C,-1.46
10,A23G C36U G50U G100A A107G C118G,≤ -4.2
11,A24C C72A C103A U109G G126U,≤ -4.2
12,A22U U56A C93G A98G C108A C114G U151A,≤ -4.2
13,A23U C43U U61G G84U A89C C108G U145A,≤ -4.2
14,A23G G46A U56A C87A G141C,≤ -4.2
15,A23U C93A A97G A113G G124U,≤ -4.2
16,A23U C38U,-4.06
17,A22U U135C,-1.64
18,A24C A29C A37U G59A U61G C87A C103G G117U,≤ -4.2
19,A22U C54U,0.174
20,A23U A64C G68C,≤ -4.2
21,A22U G59A A66U G86A A120G A138G,≤ -4.2
22,A23C A24U C57U G58A U61A C93G C103U C118U,≤ -4.2
23,A23U U148C,-4.13
24,A23C U53A G83C A91G A147U,≤ -4.2

row,Variant,polymerase ribozyme fitness (log ratio)
1,A23G A28G A39U A40U U44A U61A U78G C85U U151G,≤ -4.2
2,A23G C85A A98C,-3.17
3,A22U A120G U144A,0.42
4,A23U A26U C27U A41U C93U C95A,≤ -4.2
5,A23C U44A U45A G74A A91G,≤ -4.2
6,A24C C72U C85G C131G G133U,≤ -4.2
7,A23C C27G A60G A97C G124U,≤ -4.2
8,A23C A41U G68U C93U A106G,≤ -4.2
9,A24C A73G G83C G143U,≤ -4.2
10,A24C A49C G84A A97C U130G A137U,≤ -4.2
11,A22U U82A,0.472
12,A23G G59A G68U A142U,≤ -4.2
13,A23U A29C C51U G68U C72G G94C G136A A147C,≤ -4.2
14,A23G C87U,-3.14
15,A23G A24U C27G U55A G92U,-3.98
16,A22U G58A A60C U111A,≤ -4.2
17,A23U C85U A91G G126C G140U,≤ -4.2
18,A22U C95A C96A C99U,-1.54
19,A24C C32U A49C C85G G86A A91G C123G C132A,≤ -4.2
20,A23U U55A,-3.85
21,A23C A37G U53A A66G G88U U130A U146A,≤ -4.2
22,A22U G46A C79G G80U G92A A150C,≤ -4.2
23,A23U U109A,≤ -4.2
